The values that follow come from paper PMC6331727.

This assay has as its target ADP-ribosylation factor-like protein 13B (Arl13b). Briefly: co-immunoisolation with paramagnetic beads, immunoblot quantification. Particulars: MDCK cells expressing Prom1 or K138Q; n = 3; parent: est. 0.53; read off a plot. (In general: A western blot detects proteins with antibodies after separation by electrophoresis.)

Turning to “Human Prominin-1 (Prom1/CD133), splice variant s2 (from UniProt O43490) K138Q”, the other: Arl13b / Prom1 ratio amounted to 0.05.
